One may read the Kd as the constant that tells how readily two partners part at equilibrium.

Read-outs that look alike come from different tables or passages of the source.

The record followed here is paper PMC9266650 (2022).

Assay [1] concerns the target T1, T148-ADP-ribosylated-actin (100% TccC3-ADP-ribosylated actin) ( (purified from rabbit or …, UniProt P68135 1-377)).
Assay [2] concerns the target T2, Skeletal actin, unmodified (0% ADPR-actin control) ( (purified from rabbit or …, UniProt P68135 1-377)).
Assay [3] concerns the target T1, T148-ADP-ribosylated-actin (100% …). The assay can be described thus: FP.
In assay [4] the target is T2, Skeletal actin, unmodified (0% …). The assay can be described thus: FP.

B1: Actin-depolymerizing factor (natural protein)
chain: MASGVQVADEVCRIFYDMKVRKCSTPEEIKKRKKAVIFCLSADKKCIIVEEGKEILVGDVGVTITDPFKHFVGMLPEKDCRYALYDASFETKESRKEELMFFLWAPELAPLKSKMIYASSKDAIKKKFQGIKHECQANGPEDLNRACIAEKLGGSLIVAFEGCPV
B1: the Kd in assay [1] is 331 nM; in assay [2] it was 21.6 nM.

In assay [3], SDKPDMAEIEKFDKSKLKKTETQEKNPLPSKETIEQEKQAGES (not fully specified; ADP-ribose on threonine-148 (T148)) showed a Kd of 2440 nM.

The molecule SDKPDMAEIEKFDKSKLKKTETQEKNPLPSKETIEQEKQAGES (not fully specified) returned a Kd in assay [4] of 380 nM.
